The supplement of paper PMC10126150
± gives the standard deviation of the averaged measurements.

What follows are sequences tested on ATP (assay: switch fluorescence ratio, 500 uM ATP over buffer (Cy3 cluster intensity, sum of 5 cycles each) (fold (ratio)); higher = stronger signal-on switching upon ATP binding; sequences stand for … in TCGTCGGCAGCGTCAGATGTGTATAAGAGACAGTTTTTTTTTTTTTTTTTTTTTTTTT…TC). Conditions: aptamer strand: ATP DNA aptamer (quencher-CACCTGGGGGAGTATTGCGGAGGAAGG + anchor), 100 nM annealed; ATP concentration: 500 uM.
Method in brief: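 The fluorescence ratio divides summed target-cycle Cy3 intensity by summed buffer-cycle Cy3 intensity for each cluster and is averaged per switch-domain sequence. Cy3-labelled switching-strand clusters on a modified Illumina MiSeq flow-cell were annealed to 100 nM quencher-labelled ATP aptamer, then imaged in selection buffer and again after 15 min with 500 uM ATP at 22 °C. Five such cycles were run, with NaOH stripping and re-annealing between them, and clusters outside 100-1000 RFU were excluded.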
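Also: ATP exposure 15 min at 22 °C before imaging.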

In order of falling switch fluorescence ratio:
1. CTTCCTGCCA  2.69 ± 0.36
2. ACCACCTTAC  2.32 ± 0.29
3. CACCGGGAAC  1.56 ± 0.037
4. GGCGCAAAGC  1.487 ± 0.013
5. CGATAACCTT  1.48 ± 0.48
6. CGAGCACGGG  1.47 ± 0.053
7. GTCCACCTAC  1.38 ± 0.015
8. TCGCCCTCCA  1.26 ± 0.12
9. GCTCCCGGGG  1.24 ± 0.12
10. CAAATATACG  1.23 ± 0.23
11. TTTAATTGGC  1.17 ± 0.19
12. TTACGGTATA  1.17 ± 0.038
13. TTTGCCGCCC  1.145 ± 0.0012
14. CGAGTAGTGC  1.12 ± 0.033
15. ACGGAAGTGC  1.12 ± 0.036
16. GCGAATATCC  1.11 ± 0.017
17. TTCCTGGCGG  1.11 ± 0.1
18. TTGGGGATAG  1.11 ± 0.17
19. TTCTGTTATT  1.11 ± 0.21
20. GGGGTTTCCT  1.11 ± 0.16
21. CCGGGGACTG  1.1 ± 0.033
22. CACACAGTCG  1.09 ± 0.015
23. TGAAGAGGAT  1.09 ± 0.15
24. AATTAGGGTG  1.09 ± 0.05
25. TATACAGCGA  1.0822 ± 0.00025
26. CGTATTTTAC  1.08 ± 0.038
27. TTTTGCTTGA  1.07 ± 0.052
28. TAAACGGTGC  1.07 ± 0.023
29. AAACGGGTAG  1.07 ± 0.1
30. GGAATCCGGC  1.06 ± 0.02
31. TAGCCGCTTT  1.065 ± 0.0087
32. AGGGTACGGG  1.063 ± 0.0037
33. TAGGGGTATG  1.06 ± 0.096
34. TGGTAAAACT  1.06 ± 0.034
35. TCTTTACAGT  1.05 ± 0.032
36. TTTAGGGTGA  1.05 ± 0.028
37. ATGAAGGCGG  1.05 ± 0.068
38. TTGAATACCC  1.052 ± 0.008
39. GAAAGTAACC  1.05 ± 0.021
40. GAAATGGGTG  1.04 ± 0.078
41. TGGGAGGG  1.04 ± 0.013
42. TTATGGGAGA  1.04 ± 0.042
43. CAGAGGGGCG  1.04 ± 0.043
44. TTTGACCCTA  1.04 ± 0.019
45. ACTGTTATAT  1.044 ± 0.0053
46. TAGCTGTCAC  1.04 ± 0.04
47. AGGCTTAGAC  1.04 ± 0.032
48. GTAATAACGG  1.034 ± 0.0033
49. GTTAATTACA  1.026 ± 0.0096
50. TAAGCGCCAT  1.029 ± 0.0049
51. CAGAGGGCTA  1.03 ± 0.038
52. GATACAGCTA  1.03 ± 0.042
53. TCAAAGCCCT  1.03 ± 0.03
54. GGGGAGTTTA  1.027 ± 0.0017
55. TGAGTAAAGC  1.03 ± 0.062
56. GTTTCCTGGG  1.03 ± 0.082
57. AACTCGGTCT  1.03 ± 0.095
58. AGGAGGGGT  1.02 ± 0.07
59. TATGTTTGCC  1.02 ± 0.047
60. GGTAGAGGTA  1.02 ± 0.013
61. GCGTAATCCG  1.02 ± 0.042
62. CGCTTGTATT  1.02 ± 0.013
63. TTTAAAAAAA  1.02 ± 0.027
64. TTCGTATCAG  1.02 ± 0.035
65. TTACTAGATG  1.02 ± 0.021
66. AGCGGTTCAC  1.018 ± 0.0029
67. TTTGTCAAGG  1.02 ± 0.015
68. ATTAGATGAC  1.02 ± 0.016
69. TTTCGAGAGA  1.02 ± 0.027
70. AAGTGGGGCG  1.02 ± 0.034
71. AATCCTGGAG  1.02 ± 0.011
72. GGGCATTGTT  1.02 ± 0.043
73. TGAGTAGATA  1.01 ± 0.018
74. GAGTAAGCGG  1.01 ± 0.048
75. GGTAAAGGGA  1.01 ± 0.036
76. CGGAGGAACG  1.01 ± 0.038
77. GGGGGAAGAG  1.01 ± 0.021
78. TTTTGAGGGG  1.01 ± 0.042
79. TCGTGCAGTT  1.01 ± 0.015
80. CAAGGGGTCC  1.01 ± 0.032
81. AAGTTAAAAT  1.012 ± 0.0074
82. GGTCGGGTAT  1.01 ± 0.031
83. TGATTGGGGT  1.01 ± 0.024
84. TGGTCGCAGC  1.01 ± 0.018
85. GGCGGGACGG  1.01 ± 0.033
86. AGGCTCATTG  1.01 ± 0.033
87. GAGTTGGGAG  1.01 ± 0.032
88. GTTGGACAGC  1.01 ± 0.023
89. TGGTTTCAGG  1.01 ± 0.025
90. ATTAGTCGCG  1.01 ± 0.014
91. AGTTGGGGCG  1.01 ± 0.039
92. TATGCCTCTT  1.01 ± 0.031
93. GAGTAATCGG  1.01 ± 0.049
94. CATTGTGGTA  1.014 ± 0.0033
95. GGGGGAGTCA  1 ± 0.056
96. CATACTCTTC  1 ± 0.065
97. TGGGGAAGTT  1 ± 0.034
98. CAGTCGTCGA  1.001 ± 0.0033
99. CTGTGCCAAG  1.0036 ± 0.00061
100. TCTAAGTAAC  1 ± 0.025
101. ACGGGTGGCT  1 ± 0.014
102. CGTGCAGCGG  1 ± 0.014
103. TTTTTAAGTT  1 ± 0.028
104. GAAACAGATA  1 ± 0.012
105. TATGTAGAAG  1 ± 0.027
106. ACTGGTTATT  1 ± 0.016
107. TTTTATCCTT  1 ± 0.028
108. TTCGTATAGA  1 ± 0.041
109. AGGGGGTAAC  1 ± 0.051
110. AAGGGGTCTA  1.002 ± 0.0085
111. GCTGTAGGTT  1 ± 0.011
112. GAATTTATTT  0.999 ± 0.025
113. TGAGGGGGGG  0.999 ± 0.034
114. TTTTTGTACG  0.998 ± 0.025
115. GAGTAGACGT  0.998 ± 0.049
116. AGCTAGTTTA  0.998 ± 0.0036
117. GTTAGGTAGC  0.997 ± 0.011
118. GGTTACCAGA  0.9973 ± 0.0065
119. GCGGGGATTT  0.996 ± 0.023
120. CGGTGGTTTG  0.996 ± 0.026
121. TTATGTATGT  0.996 ± 0.017
122. AAGGGGAAGG  0.996 ± 0.012
123. TTCTTACTGG  0.995 ± 0.021
124. GAAATGGAGG  0.995 ± 0.027
125. TAGCTCGTTT  0.995 ± 0.038
126. TTTGTCTGAC  0.9946 ± 0.0028
127. CATAGTTACG  0.994 ± 0.047
128. TCAGGGCTGT  0.994 ± 0.029
129. AGTTTCTACG  0.994 ± 0.015
130. TTAGTGGCTT  0.994 ± 0.035
131. GGGGCGAGAG  0.9939 ± 0.0046
132. TAGGGCTTAA  0.993 ± 0.042
133. CAGGGGAGCG  0.993 ± 0.037
134. GGTAGTGGCT  0.993 ± 0.01
135. TATAACGTTA  0.993 ± 0.015
136. ATTGTTGAAT  0.993 ± 0.015
137. AGGGGAGAGG  0.992 ± 0.01
138. CCATGTGAAG  0.992 ± 0.027
139. ATCGGCTCTG  0.991 ± 0.043
140. TGGGAGGGGG  0.991 ± 0.036
141. GGATCTTAAG  0.991 ± 0.035
142. CGTGGGGACT  0.991 ± 0.027
143. AATTTGTATG  0.991 ± 0.028
144. AGACGTAGTG  0.99 ± 0.029
145. CGTGGGAGGG  0.99 ± 0.011
146. TCGCATCCTT  0.989 ± 0.017
147. GGTCCTTAAT  0.989 ± 0.025
148. AAGGCGGGCT  0.98942 ± 7e-05
149. GGATTTGCCA  0.989 ± 0.038
150. CGGGGTGCCG  0.98847 ± 0.00081
151. ATTGATTAGG  0.988 ± 0.043
152. CGTCGGGTGG  0.9882 ± 0.0028
153. AAGCGTTTTG  0.988 ± 0.0017
154. AAAAAGGGTA  0.988 ± 0.05
155. TGGTAGAGTG  0.987 ± 0.0027
156. TATTGGCTAA  0.987 ± 0.034
157. AGGGGGTGGT  0.987 ± 0.043
158. GCCGGAAAGG  0.9857 ± 0.0075
159. GGCGTAGTCA  0.9855 ± 0.0022
160. AATCAGCGTC  0.986 ± 0.023
161. GGTTGGGCGA  0.986 ± 0.021
162. GGGGGTCCGA  0.9855 ± 0.0042
163. TGGGGTTA  0.98448 ± 0.00037
164. TGCGGGTTAG  0.984 ± 0.032
165. TATAGTATTT  0.984 ± 0.015
166. TTAAGTGCTC  0.983 ± 0.031
167. TGGGTTACGG  0.983 ± 0.036
168. TAGTAATGTT  0.982 ± 0.025
169. CAGTGAGGGA  0.9804 ± 0.004
170. CAGGGATTTT  0.98 ± 0.022
171. GGGTGAGGTA  0.97888 ± 0.00072
172. GATTGTCTTA  0.979 ± 0.016
173. CGTTTAGTGG  0.9781 ± 0.0089
174. CGATTTTTTC  0.9774 ± 0.003
175. TAGAGAAATT  0.976 ± 0.023
176. GTGGAACGTA  0.976 ± 0.015
177. AAGGTTTCAG  0.9758 ± 0.0079
178. AACAGTTGTG  0.976 ± 0.017
179. AATGTTGTTT  0.976 ± 0.02
180. ACAAGCTTGT  0.975 ± 0.063
181. TTAGGACTTT  0.975 ± 0.037
182. ATGCTGGGTC  0.973 ± 0.028
183. AAGAAGCTGA  0.972 ± 0.019
184. TAGTTTCCCA  0.971 ± 0.024
185. GGGGTTGGGA  0.971 ± 0.025
186. ATTTAATATG  0.97 ± 0.011
187. GGTCTGAGGG  0.97 ± 0.032
188. CGTATGTGGT  0.97 ± 0.019
189. TTTTGATCTA  0.97 ± 0.019
190. CATGGAAGGG  0.9699 ± 0.0068
191. TGGGACGGGT  0.968 ± 0.052
192. TAATGTGGGA  0.96651 ± 0.00012
193. GGGTAGGCTT  0.965 ± 0.023
194. AATCATCGTG  0.9646 ± 0.0043
195. TTACCATTAG  0.965 ± 0.011
196. AGTTCGGTGG  0.962 ± 0.0022
197. AGTCTGGGGG  0.959 ± 0.011
198. AATATTAGCC  0.957 ± 0.02
199. TCGGATAGAG  0.949 ± 0.058
200. GGAACAGGGT  0.934 ± 0.072
